Measured values: patent US20210063414A1, “METHODS FOR PREVENTING AND/OR TREATING BONE LOSS CONDITIONS BY MODULATING IRISIN” (Dana-Farber Cancer Institute, Inc., priority 2018, published 2021)

Columns and labels:
Assay in all cases: Crosslinking/co-immunoprecipitation/mass spectrometry (TMT quantitative proteomics) to identify irisin receptors
Assay type in all cases: binding
[1] = biological target: T1, MLO-Y4 cell surface proteins (Mus musculus, UniProt P63038); details: co-precipitated protein Hspd1 (CH60_MOUSE)
T1 construct: endogenous in cells; host or cells: MLO-Y4
Outline: (§1)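 Mouse MLO-Y4 cells were switched to serum-free FreeStyle medium for 4 h, chilled, then exposed to 10 nM His-tagged irisin (or adipsin as control) for 20 min. Cells were crosslinked with 1.5 mM DTSSP (30 min, ice), and bound proteins were pulled down on Ni-NTA and eluted with 250 mM imidazole. Eluates were separated by SDS-PAGE, trypsin-digested in gel, TMT 6-plex labelled and quantified by MS3-based LC-MS/MS on an Orbitrap Fusion Lumos.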

[2] = biological target: T2, MLO-Y4 cell surface proteins (Mus musculus, UniProt P61161); details: co-precipitated protein Actr2 (ARP2_MOUSE)
T2 construct: endogenous in cells; host or cells: MLO-Y4
Outline: as §1

[3] = biological target: T3, MLO-Y4 cell surface proteins (Mus musculus, UniProt P59242); details: co-precipitated protein Cgn (CING_MOUSE)
T3 construct: endogenous in cells; host or cells: MLO-Y4
T3 sequence (P59242 1-1191): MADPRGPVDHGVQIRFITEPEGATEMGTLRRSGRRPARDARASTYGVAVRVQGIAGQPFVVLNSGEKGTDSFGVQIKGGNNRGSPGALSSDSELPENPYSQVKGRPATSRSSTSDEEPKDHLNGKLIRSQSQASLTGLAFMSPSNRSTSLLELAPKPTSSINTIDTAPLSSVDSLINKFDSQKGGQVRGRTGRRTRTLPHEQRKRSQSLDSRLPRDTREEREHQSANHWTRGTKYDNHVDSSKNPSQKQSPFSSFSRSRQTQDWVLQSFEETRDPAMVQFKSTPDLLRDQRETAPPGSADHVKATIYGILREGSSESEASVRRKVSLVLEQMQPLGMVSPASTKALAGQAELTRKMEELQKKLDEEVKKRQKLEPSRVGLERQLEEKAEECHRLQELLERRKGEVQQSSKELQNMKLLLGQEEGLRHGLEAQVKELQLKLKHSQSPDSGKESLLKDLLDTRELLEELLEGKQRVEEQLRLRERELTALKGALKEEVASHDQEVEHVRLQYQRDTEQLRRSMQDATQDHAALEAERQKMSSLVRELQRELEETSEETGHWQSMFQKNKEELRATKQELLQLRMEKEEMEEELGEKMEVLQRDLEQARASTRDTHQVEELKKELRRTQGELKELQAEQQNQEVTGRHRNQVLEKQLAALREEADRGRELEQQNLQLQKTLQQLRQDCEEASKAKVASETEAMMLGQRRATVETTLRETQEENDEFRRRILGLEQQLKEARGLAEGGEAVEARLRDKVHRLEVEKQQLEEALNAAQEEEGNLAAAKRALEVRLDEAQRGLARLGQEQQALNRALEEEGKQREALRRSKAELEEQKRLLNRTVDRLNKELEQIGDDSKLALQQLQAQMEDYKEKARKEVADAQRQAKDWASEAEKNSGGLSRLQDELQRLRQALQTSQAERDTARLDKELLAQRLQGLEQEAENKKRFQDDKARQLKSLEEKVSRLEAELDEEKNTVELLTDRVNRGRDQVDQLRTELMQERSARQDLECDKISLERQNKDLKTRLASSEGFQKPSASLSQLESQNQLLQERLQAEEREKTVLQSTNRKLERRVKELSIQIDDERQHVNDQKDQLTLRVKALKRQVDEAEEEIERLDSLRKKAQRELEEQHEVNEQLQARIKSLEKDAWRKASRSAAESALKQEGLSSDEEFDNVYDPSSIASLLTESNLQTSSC
Outline: as §1

T1 sequence (P63038 27-573): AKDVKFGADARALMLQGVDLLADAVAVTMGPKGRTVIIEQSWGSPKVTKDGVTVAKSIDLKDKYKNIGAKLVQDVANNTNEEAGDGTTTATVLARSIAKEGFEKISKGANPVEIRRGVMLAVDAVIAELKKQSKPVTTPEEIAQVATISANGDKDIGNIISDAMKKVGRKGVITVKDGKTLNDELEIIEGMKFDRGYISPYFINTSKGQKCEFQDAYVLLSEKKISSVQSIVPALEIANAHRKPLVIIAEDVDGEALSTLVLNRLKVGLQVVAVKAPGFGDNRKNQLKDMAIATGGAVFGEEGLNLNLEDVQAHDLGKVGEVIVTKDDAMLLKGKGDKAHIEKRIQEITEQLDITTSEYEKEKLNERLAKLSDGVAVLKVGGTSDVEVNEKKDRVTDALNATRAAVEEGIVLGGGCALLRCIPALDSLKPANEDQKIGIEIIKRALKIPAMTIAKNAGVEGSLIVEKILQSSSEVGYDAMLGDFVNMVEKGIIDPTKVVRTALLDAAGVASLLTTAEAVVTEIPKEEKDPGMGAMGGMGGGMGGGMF

B1: irisin: secreted cleaved form of FNDC5; recombinant human/mouse irisin with C-terminal his tag produced in HEK293 cells (protein)
chain: DSPSAPVNVTVRHLKANSAVVSWDVLEDEVVIGFAISQQKKDVRMLRFIQEVNTTTRSCALWDLEEDTEYIVHVQAISIQGQSPASEPVLFKTPREAEKMASKNKDEVTMKE
modifications: left off: small tags and cut ends
notes: secreted cleaved form of FNDC5; recombinant human/mouse irisin with C-terminal his tag produced in HEK293 cells
[1]
  TMT signal-to-noise ratio: 2002.08
  irisin/adipsin TMT signal-to-noise ratio: 0.470
[2]
  TMT signal-to-noise ratio: 84.7644
  irisin/adipsin TMT signal-to-noise ratio: 0.552
[3]
  TMT signal-to-noise ratio: 16.0255
  irisin/adipsin TMT signal-to-noise ratio: 0.080
